Patent US20120165265A1, “Calcium Signaling Modulators Involving STIM and ORAI Proteins” (priority 2009, published 2012)

B1: Orai11-70: Orai1 fragment aa 1-70 (protein)
chain: MHPEPAPPPSRSSPELPPSGGSTTSGSRRSRRRSGDGEPPGAPPPPPSAVTYPDWIGQSYSEVMSLNEHS
modifications: left off: small tags and cut ends
B2: STIM1-DCAD: WT-STIM1 with the CAD deleted (protein)
chain: LSHSHSEKATGTSSGANSEESTAAEFCRIDKPLCHSEDEKLSFEAVRNIHKLMDDDANGDVDVEESDEFLREDLNYHDPTVKHSTFHGEDKLISVEDLWKAWKSSEVYNWTVDEVVQWLITYVELPQYEETFRKLQLSGHAMPRLAVTNTTMTGTVLKMTDRSHRQKLQLKALDTVLFGPPLLTRHNHLKDFMLVVSIVIGVGGCWFAYIQNRYSKEHMKKMMKDLEGLHRAEQSLHDLQERLHKAQEEHRTVEVEKVHLEKKLRDEINLAKQEAQRLKELREGTENERSRQKYAEEELEQVREALRKAEKELESHSSWSLVAALNIDPSWMGSTRPNPAHFIMTDDVDDMDEEIVSPLSMQSPSLQSSVRQRLTEPQHGLGSQRDLTHSDSESSLHMSDRQRVAPKPPQMSRAADEALNAMTSNGSHRLIEGVHPGSLVEKLPDSPALAKKALLALNHGLDKAHSLMELSPSAPPGGSPHLDSSRSHSPSSPDPDTPSPVGDSRALQASRNTRIPHLAGKKAVAEEDNGSIGEETDSSPGRKKFPLKIFKKPLKK
modifications: left off: large carriers
notes: WT-STIM1 with the CAD deleted

Columns and labels:
[1] = biological target: T1, CAD (Homo sapiens, UniProt Q13586); assay: Co-immunoprecipitation of Orai1 fragments with CAD in HEK 293T cells; type: binding; details: YFP-tagged Orai1 fragment with Flag-myc-CAD in HEK 293T cells
T1 construct: For STIM1 342-448 (CAD); expressed in transfected cells; host or cells: HEK 293T
T1 sequence (Q13586 342-448): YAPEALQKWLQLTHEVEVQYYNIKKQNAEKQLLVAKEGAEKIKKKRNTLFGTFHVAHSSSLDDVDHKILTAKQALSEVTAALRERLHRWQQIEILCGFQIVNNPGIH
Protocol: Immunoprecipitation and Immunoblot Analysis. Transfected HEK 293T cells (12-24 h) were washed with PBS and lysed in 50 mM Tris-HCl pH 7.5, 150 mM NaCl, 1% Triton X-100, and protease inhibitors. Lysates were spun at 12,000 rpm for 10 min, and the supernatant was incubated with anti-Flag M2 agarose beads (Sigma), or anti-myc or -HA antibody followed by IgG agarose beads (Pierce). Lysates and immunoprecipitates were subjected to SDS-PAGE, probed with HRP-conjugated secondary antibody and detected by enhanced chemiluminescence (Pierce).
STIM1-CAD BINDS TO THE N- AND C-TERMINI OF ORAI1. To identify regions of Orai1 important for activation by CAD, we characterized the binding of CAD to Orai1 using two approaches. First we expressed fusions of NubG with the N-terminus, the II-III cytoplasmic loop and the C-terminus of Orai1 in yeast together with different CAD-Cub-LV constructs. […] Based on the level of b-gal activity, CAD appears to interact with the Orai1 C-terminus with a higher affinity than with the N-terminus. We next expressed fusions of YFP with the N-terminus, the II-III loop and the C-terminus of Orai1 in HEK 293T cells together with Flag-myc-CAD. […]

[2] = biological target: T2, Orai1 (Homo sapiens, UniProt Q96D31); assay: Puncta formation of STIM1 variants by confocal microscopy in HEK 293 cells; type: cell-based; details: coexpressed with eGFP-Orai1, TG
T2 construct: expressed in transfected cells; host or cells: HEK 293
T2 sequence (Q96D31 whole entry): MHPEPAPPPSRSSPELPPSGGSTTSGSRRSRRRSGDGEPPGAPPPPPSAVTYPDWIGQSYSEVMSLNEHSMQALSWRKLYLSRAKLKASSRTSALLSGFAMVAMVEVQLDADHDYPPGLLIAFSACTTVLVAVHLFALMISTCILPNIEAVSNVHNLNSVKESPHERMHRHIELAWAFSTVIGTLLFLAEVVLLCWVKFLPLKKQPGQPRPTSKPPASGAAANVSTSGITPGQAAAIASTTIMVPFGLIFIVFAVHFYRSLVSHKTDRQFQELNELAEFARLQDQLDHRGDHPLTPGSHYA
Protocol: Confocal Microscopy. 6 h after transfection, HEK 293 cells were plated onto sterilized coverslips coated with poly-D-lysine and maintained in complete DMEM for an additional 12-18 h before imaging in Ringer's solution containing (in mM): 155 NaCl, 4.5 KCl, 2 CaCl2, 1 MgCl2, 10 D-glucose, and 5 Na-Hepes, pH 7.4. To deplete stores, cells were treated with 1 μM TG in Ca2+-free Ringer's (prepared by substituting 2 mM MgCl2 and 1 mM EGTA for CaCl2) for 10 min. eGFP and mCherry were excited simultaneously at 488 and 594 nm, respectively, on a Leica SP2 AOBS inverted confocal microscope equipped with a PL APO 100×/NA 1.4 oil immersion objective. Fluorescence emissions were collected at 615-840 nm (mCherry) and 510-570 nm (eGFP). All experiments were performed at 22-25° C.
Quantitation of STIM1 and Orai1 Recruitment into Puncta. Colocalization of eGFP-Orai1 and mCh-STIM1 variants was analyzed from background-corrected confocal image pairs acquired before and after store depletion. Puncta have two defining characteristics: (1) because they are sites of accumulation, STIM1 and Orai1 fluorescence intensities in puncta are greater than the respective mean intensities measured across the entire cell, and (2) because STIM1 and Orai1 co-localize in puncta, their fluorescence covariance is high. […]

[3] = tested on: endogenous CRAC channels; assay: NFAT-luciferase assay in HEK 293T (NFAT-Luc) cells; type: cell-based; details: following treatment with TG+PMA
Protocol: NFAT-luciferase Assays. HEK 293T cells were co-transfected with the indicated constructs and an NFAT reporter gene (firefly luciferase gene C-terminal to 4×-NFAT site from the IL-2 gene). Cotransfection with the Renilla luciferase (pRLTK) gene driven by the TK promoter was used to control for cell number and transfection efficiency. After 12-18 h, cells were treated with a control DMSO solution (mock), PMA (1 μM), or PMA plus TG (1 μM) for 8 h. Assays were performed using the Dual Luciferase Reporter assay system (Promega). For each condition, luciferase activity was measured with 4 samples taken from duplicate wells using a 96-well automated luminometer (Turner Biosystems). Results are represented as the ratio of firefly to Renilla luciferase activity.
Identifying a Minimal Cytosolic Region of STIM1 that Opens the CRAC Channel. To identify the CRAC-activating domain of STIM1, we first tested a series of soluble cytosolic STIM1 fragments for their ability to activate an NFAT-dependent luciferase reporter gene (NFAT-luc). A series of constructs were generated by progressive truncation of the full-length cytosolic region of STIM1 (FIG. 2A; STIM1234-685; CT-STIM1) and were transiently expressed in a HEK 293T cell line containing NFAT-luc. […]

[4] = biological target: T2, Orai1; assay: Store-operated Ca2+ entry by STIM1 variants, single cell Ca2+ imaging; type: cell-based; details: coexpressed with eGFP-Orai1, TG
Protocol: For FIG. 7, cells were loaded as above with 2 μM fura-2/AM for 25 min. Ratiometric Ca2+ imaging was performed with 350 and 380 nm excitation in 2 mM Ca2+ Ringer's solution on an Axiovert 35 inverted microscope using a VideoProbe imaging system as described (Bautista et al., 2002). mCherry-positive cells were identified using a 540±12 nm excitation and a 580LP emission filter (Chroma).
The Role of CAD in Orai1 Binding and Activation by STIM1. A key question is whether CAD is responsible for the clustering and activation of CRAC channels by full-length STIM1 following store depletion. To address this, we measured the ability of mCherry-tagged STIM1 variants containing CAD mutations to co-cluster with eGFP-Orai1 and activate Ca^2+ entry in response to TG (FIG. 7). STIM1-Orai1 colocalization was quantified as the fraction of total STIM1 and Orai1 fluorescence that was recruited to regions of high fluorescence covariance (FIG. 13), while Ca^2+ influx was measured with single cell Ca^2+ imaging. For each set of experiments we measured mCherry and GFP fluorescence to confirm that differences in the activity of the various STIM1 constructs were not due to differences in expression level (FIG. 14).

Molecule	co-immunoprecipitation with CAD [1]	puncta formation with Orai1 after store depletion [2]	NFAT activation by endogenous channels [3]	Ca2+ entry (SOCE) after store depletion [4]
B1	not			
B2		failed to form puncta	inhibited NFAT activation	failed to form puncta, cluster Orai1 or activate Ca^2+ entry
